Assays:
[1] = target: T1, recombinant mouse TfR1 (mouse, UniProt Q62351 89-763); experiment: ELISA on plate-coated recombinant mouse TfR1, fluorescent anti-(H+L) IgG secondary
T1 construct: Recombinant protein coated on ELISA plates
Protocol: Serial dilutions of the Fab were added to plates precoated with recombinant human, cynomolgus monkey, mouse, or rat TfR1. After a short incubation, binding of the Fab was quantified by addition of a fluorescently tagged anti-(H+L) IgG secondary antibody and measurement of fluorescence intensity at 495 nm excitation and 520 nm emission.

[2] = target: T2, recombinant human TfR1 (transferrin receptor protein 1) (human, UniProt P02786 89-760); experiment: Biacore, d0; TfR1 species not stated
T2 construct: Recombinant protein in SPR and ELISA; they were assigned to this molecule; also called hTfR1; huTfR1
T2 sequence (P02786 89-760 limits assumed): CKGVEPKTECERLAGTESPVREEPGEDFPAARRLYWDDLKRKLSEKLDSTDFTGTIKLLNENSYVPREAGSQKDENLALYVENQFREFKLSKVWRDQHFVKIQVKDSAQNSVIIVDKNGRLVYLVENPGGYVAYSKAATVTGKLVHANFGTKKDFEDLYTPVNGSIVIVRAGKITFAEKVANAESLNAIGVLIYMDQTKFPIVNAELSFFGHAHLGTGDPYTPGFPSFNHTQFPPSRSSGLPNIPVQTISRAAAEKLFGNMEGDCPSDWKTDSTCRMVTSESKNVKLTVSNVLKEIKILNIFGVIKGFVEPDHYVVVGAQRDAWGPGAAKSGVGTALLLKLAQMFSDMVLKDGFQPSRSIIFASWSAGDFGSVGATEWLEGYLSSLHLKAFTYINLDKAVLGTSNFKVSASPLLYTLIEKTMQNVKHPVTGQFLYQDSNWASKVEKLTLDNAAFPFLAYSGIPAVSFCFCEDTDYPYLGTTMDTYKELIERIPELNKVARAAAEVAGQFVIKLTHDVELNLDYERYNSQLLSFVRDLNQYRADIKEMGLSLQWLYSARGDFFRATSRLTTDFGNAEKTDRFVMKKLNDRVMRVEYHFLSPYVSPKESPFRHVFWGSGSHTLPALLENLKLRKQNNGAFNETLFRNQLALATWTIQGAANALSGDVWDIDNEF

[3] = target: T2, recombinant human TfR1 (transferrin …); experiment: Biacore, d25; TfR1 species not stated

T1 sequence (Q62351 89-763 limits assumed): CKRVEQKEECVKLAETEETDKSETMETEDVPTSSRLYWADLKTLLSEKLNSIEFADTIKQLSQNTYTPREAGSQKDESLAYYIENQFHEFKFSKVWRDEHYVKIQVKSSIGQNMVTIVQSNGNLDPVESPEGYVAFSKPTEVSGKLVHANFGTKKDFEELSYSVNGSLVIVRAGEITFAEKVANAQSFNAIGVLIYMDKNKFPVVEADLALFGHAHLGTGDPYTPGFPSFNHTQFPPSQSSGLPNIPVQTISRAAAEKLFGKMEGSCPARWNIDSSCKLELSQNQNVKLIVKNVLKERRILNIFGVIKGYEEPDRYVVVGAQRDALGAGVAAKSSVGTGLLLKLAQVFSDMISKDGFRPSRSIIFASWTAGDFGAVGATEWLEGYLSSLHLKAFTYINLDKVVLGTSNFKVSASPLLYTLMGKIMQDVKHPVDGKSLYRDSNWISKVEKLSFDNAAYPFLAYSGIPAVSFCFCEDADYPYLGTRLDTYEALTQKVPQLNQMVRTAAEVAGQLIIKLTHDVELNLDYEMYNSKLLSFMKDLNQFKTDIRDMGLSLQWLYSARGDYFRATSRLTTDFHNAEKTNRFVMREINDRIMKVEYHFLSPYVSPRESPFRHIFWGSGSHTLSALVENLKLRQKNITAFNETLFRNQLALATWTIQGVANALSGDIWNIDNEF

- binding result [1]: no binding (tested: 500 nM)
- Kd [2]: 0.341 nM
- Kd [3]: 0.486 nM
B1: humanized anti-TfR Fab 3M12 VH4/Vκ3 (Fab, V domains shown)
VH: QVQLQESGPGLVKPSQTLSLTCTVTGYSITSGYYWNWIRQPPGKGLEWIGYITFDGANNYNPSLKNRVSISRDTSKNQFSLKLSSVTAEDTATYYCTRSSYDYDVLDYWGQGTTVTVSS
VL: DIQMTQSPSSLSASVGDRVTITCRASQDISNFLNWYQQKPGQPVKLLIYYTSRLHSGVPSRFSGSGSGTDFTLTISSLQPEDFATYYCQQGHTLPYTFGQGTKLEIKR
notes: also called 3M12 (VH4/Vk3); anti-TfR Fab 3M12 VH4/Vk3

Reference: patent publication US11844843 (DYNE THERAPEUTICS, dated 2023)
